Results reported in patent publication US20250340881A1, “PHARMACEUTICAL COMPOSITION FOR TREATING CANCER COMPRISING FOXM1 MUTANT OR FOXM1 SHRNA” (Industry-University Cooperation Foundation Hanyang …, priority 2022, published 2025).

How the values were obtained:
THP-1 cells = assay: M1 and M2 marker mRNA in THP-1 cells co-cultured with FoxM1-expressing A549 cells; assay type: cell-based, human; conditions: co-culture 48 h
Source text: In the animal tissues, it was confirmed that both PD-L1 protein expression and CD274 mRNA expression were increased in cancer cells expressing FoxM1 (FIG. 5D, 5E). […] From the results described above, we investigated whether FoxM1 phosphorylated point mutant (S25E) affects the polarization of macrophages in the tumor microenvironment. After co-culturing human monocyte THP-1 cells and the cell groups over-expressing FoxM1 point mutants, M1 and M2 markers were examined in THP-1 cells.
Next, an expression suppression system for suppressing FoxM1 expression was established to observe whether the FoxM1 phosphorylated point mutant (S25E) directly affects polarization to M2 macrophages. First, to inhibit the expression of mRNA of FoxM1, a pLKO-puro.1-hFoxM1 plasmid was produced using a pLKO-puro.1 vector to construct shRNAs targeting nucleotide sequences at 709-729 positions in the human FoxM1 mRNA sequence. The following sequences can be used as target sequences for human FoxM1 shRNA production, and oligonucleotides with the following sequences can be used as primers for shRNA production. The gene accession number for human FoxM1 mRNA in PubMed is NM_001243088.2, and it contains 3507 bp. The following primers were used for shRNA production: 5′-ccgg-[…]-ctcgag-[…]-tttttg-3′ (forward primer) and 5′-aattcaaaaa-AGCAAG AGATGGAGGAAAAGG-ctcgag-[…]-3′ (reverse primer). Then, after purifying and concentrating each lentivirus for expression of the produced FoxM1 shRNA, it was constructed by infecting a lung cancer cell line, A549 cells expressing FoxM1, with the virus. The mRNA expression of M2 markers, CD163, CD206, and VEGFA, was examined after co-culturing lung cancer cells (4×10^4 cells/ml) with suppressed FoxM1 expression and THP-1 cells (1.2×10^5 cells/ml) for 48 h. […] When co-culturing with cancer cells expressing the FoxM1 variant S25E, it was confirmed that the M2 markers CD163, CD206, and VEGFA were all increased by 2 folds or more in THP1 cells compared to the control group (Mock_shCtrl) (FIG. 6D).
After co-culturing the FoxM1 WT protein over-expressed cancer cells (4×10^4 cells/ml) and THP-1 cells (1.2×10^5 cells/ml) for 48 h, the mRNA expression of M1 markers INOS and IL12B was not altered, while the mRNA expression of all the M2 markers IL10, CD163, CD206, TGFB1, and VEGFA was increased in the FoxM1 WT (FIG. 13A). Among them, CD206, TGFB1, and VEGFA had been known as markers for M2d-tumor-associated macrophages (M2d-TAM) (JAYASINGAM, Sharmilla Devi, et al., Frontiers in Oncology (2020) 9: 1512.).

A549 lung cancer cells = assay: Cell proliferation assay of A549 cells expressing FoxM1 point mutants; assay type: cell-based; conditions: A549 cells expressing the mutant

B1: S25E: FoxM1 phosphorylated point mutant of the S25 residue, expressed by lentivirus in A549 cells (protein, listed as Homo sapiens)
chain: MKTSPRRPLILKRRRLPLPVQNAPEETSEEEPKRSPAQQESNQAEASKEVAESNSCKFPAGIKIINHPTMPNTQVVAIPNNANIHSIITALTAKGKESGSSGPNKFILISCGGAPTQPPGLRPQTQTSYDAKRTEVTLETLGPKPAARDVNLPRPPGALCEQKRETCDGEAAGCTINNSLSNIQWLRKMSSDGLGSRSIKQEMEEKENCHLEQRQVKVEEPSRPSASWQNSVSERPPYSYMAMIQFAINSTERKRMTLKDIYTWIEDHFPYFKHIAKPGWKNSIRHNLSLHDMFVRETSANGKVSFWTIHPSANRYLTLDQVFKQQQKRPNPELRRNMTIKTELPLGARRKMKPLLPRVSSYLVPIQFPVNQSLVLQPSVKVPLPLAASLMSSELARHSKRVRIAPKVLLAEEGIAPLSSAGPGKEEKLLFGEGFSPLLPVQTIKEEEIQPGEEMPHLARPIKVESPPLEEWPSPAPSFKEESSHSWEDSSQSPTPRPKKSYSGLRSPTRCVSEMLVIQHRERRERSRSRRKQHLLPPCVDEPELLFSEGPSTSRWAAELPFPADSSDPASQLSYSQEVGGPFKTPIKETLPISSTPSKSVLPRTPESWRLTPPAKVGGLDFSPVQTSQGASDPLPDPLGLMDLSTTPLQSAPPLESPQRLLSSEPLDLISVPFGNSSPSDIDVPKPGSPEPQVSGLAANRSLTEGLVLDTMNDSLSKILLDISFPGLDEDPLGPDNINWSQFIPELQ
THP-1 cells
  M2 markers CD163, CD206 and VEGFA in THP1 cells compared to Mock_shCtrl: ≥ 2 folds
  mRNA expression of M1 markers INOS and IL12B in THP-1 cells: did not change
  mRNA expression of M2 markers IL10, CD163, Cd206, TGFB1 and VEGFA in THP-1 cells: ≥ 2 folds
A549 lung cancer cells
  cell proliferation: did not significantly increase
